Laboratory results taken from US10434074B2, “Peptide and small molecule agonists of EPHA and uses thereof” (CASE WESTERN RESERVE UNIVERSITY, priority 2004, dated 2019).

Key:
[1] = target: T1, EphA1 (Homo sapiens, UniProt P21709); test: Proliferation of DU145 cells expressing EphA1; type: cell-based; settings: 10% serum 7 days or 0.5% serum 18 days
T1 construct: expressed in transfected cells; host or cells: DU145 cells, retroviral infection
T1 sequence (P21709 26-976): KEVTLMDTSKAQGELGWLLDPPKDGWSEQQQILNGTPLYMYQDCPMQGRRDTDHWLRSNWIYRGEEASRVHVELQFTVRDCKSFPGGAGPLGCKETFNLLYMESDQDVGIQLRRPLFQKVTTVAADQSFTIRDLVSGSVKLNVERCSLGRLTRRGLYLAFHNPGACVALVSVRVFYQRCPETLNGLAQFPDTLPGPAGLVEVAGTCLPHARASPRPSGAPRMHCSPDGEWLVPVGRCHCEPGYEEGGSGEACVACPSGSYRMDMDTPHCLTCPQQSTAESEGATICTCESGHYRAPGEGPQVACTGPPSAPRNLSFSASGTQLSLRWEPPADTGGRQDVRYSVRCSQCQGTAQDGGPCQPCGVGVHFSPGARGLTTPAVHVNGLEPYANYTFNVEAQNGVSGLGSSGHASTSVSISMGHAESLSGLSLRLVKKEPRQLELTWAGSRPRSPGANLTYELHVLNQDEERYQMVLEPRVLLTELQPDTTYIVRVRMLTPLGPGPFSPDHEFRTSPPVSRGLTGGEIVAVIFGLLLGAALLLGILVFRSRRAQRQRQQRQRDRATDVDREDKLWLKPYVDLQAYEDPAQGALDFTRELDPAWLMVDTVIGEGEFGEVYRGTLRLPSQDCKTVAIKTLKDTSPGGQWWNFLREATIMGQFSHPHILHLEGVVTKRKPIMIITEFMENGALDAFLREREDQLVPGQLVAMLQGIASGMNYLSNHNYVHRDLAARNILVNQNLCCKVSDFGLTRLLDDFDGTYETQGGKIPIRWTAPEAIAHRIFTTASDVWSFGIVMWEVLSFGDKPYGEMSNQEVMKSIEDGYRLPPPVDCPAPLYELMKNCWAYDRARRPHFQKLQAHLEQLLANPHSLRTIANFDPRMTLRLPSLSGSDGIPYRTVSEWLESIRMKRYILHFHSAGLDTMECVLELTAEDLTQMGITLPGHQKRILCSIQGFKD
Procedure: (§1) FIGS. 49(A-B) illustrate expression of EphA1 in DU145 cells infected with vector control (control) and EphA1 expression retrovirus. FIG. 49B illustrates that about 2,000 cells were plated on 12-well plates in the regular culture medium (10% serum) and low serum medium (0.5%). Cell were cultured for 7 days (10% serum) or 18 days (0.5%). FIG. 49B illustrates that proliferation of prostatic epithelial cells expressing EphA1 and activated with Ephrin-A1 is inhibited.
as §1, with “DU145 human prostatic epithelial cells were infected with retrovirus expressing EphA1. FIG. 49A illustrates” for “FIGS. 49(A-B) illustrate”

[2] = tested on: primary keratinocytes; test: Clonal growth of primary keratinocytes; type: cell-based, mouse
Procedure: FIGS. 43(A-C) illustrate EphA2 kinase is required for ephrin-A1-induced inhibition of ERK1/2 MAP kinase and growth suppression in primary keratinocytes. A) EphA kinase activation by ephrin-A1 in EphA2^+/+ and EphA2^+/− but not EphA2^−/− keratinocytes. Keratinocytes were isolated from newborn (P1) mice and cultured on matrigel-coated culture plates. They were stimulated with 1.0 μg/ml of ephrin-A1-Fc for 10 min. The unstimulated cells were used as control. EphA receptors including EphA2 were precipitated from the cell lysates using ephrin-A1-Fc, and were subjected to immunoblot analysis with rabbit polyclonal anti-phospho-EphA/B antibody. Membrane was stripped and blotted again for total EphA2. B) Ephrin-A1 stimulation leads to inactivation of ERK1/2 MAPK in EphA2^+/+ and EphA2^+/− but not EphA2^−/− keratinocytes. Total cell lysates were analyzed by immunoblot with the indicated antibodies. The band densities from p-ERK blot were normalized to the corresponding total ERK1 blot. The ratios of p-ERK between ephrin-A1-treated and untreated were shown in the lower panel. C). Ephrin-A1 stimulation inhibits clonal growth of EphA2^+/+ and EphA2^+/− but not EphA2^−/− keratinocytes. Primary keratinocytes were plated on 6-well plates coated with matrigel at 5,000 cells/well, and allowed to grow for 12 days in the presence of Fc (0.5 μg/ml) or ephrin-A1-Fc (1.0 μg/ml).

[3] = tested on: DU-145 cells; test: Wound healing assay; type: cell-based, human; settings: 12 hours
Procedure: FIGS. 2(A-E) illustrate EphA activation inhibited DU-145 cell migration. (A) Expression of c-Met is elevated in cell lines derived from more malignant prostate cancer. Total cellular proteins were immunoblotted with anti-human c-Met. An anti-tubulin blot was used as a control for protein loading. (B) In a modified Boyden chamber assay, DU-145 cells were placed in the upper chamber and allowed to migrate to the lower chamber containing indicated reagents. After 8 hours, cells were stained with crystal violet and cells remaining in the upper chamber were removed. Top panel: Cells migrated to the undersides of membrane were counted; six high power fields were counted. Results represent means±S.D. Representative fields were shown in the lower panel. (C) Ephrin-A1-Fc inhibits DU-145 cell migration when HGF/SF was uniformly presented in both sides of membranes. The experiment was carried out as described in A. (D) Inhibition of cell scattering by immobilized ephrin-A1 in a SOIL assay (Method). Ephrin-A1-Fc or control Fc was immobilized on 6-well culture dishes. Freshly confluent DU-145 cells on cover slips were transferred to the coated surfaces. Cells were stimulated with HGF/SF to induce migration off the cover slips to immobilized Fc or ephrin-A1-Fc. […] The wound healing was recorded prior to and 12 hours after the addition of Fc, ephrin-A1-Fc (1 μg/ml) and/or HGF/SF (20 ng/ml). […]

B1: ephrin-A1-Fc: ephrin-A1 dimerized by fusion to the heavy chain of human IgG1 (protein)
chain: DRHTVFWNSSNPKFRNEDYTIHVQLNDYVDIICPHYEDHSVADAAMEQYILYLVEHEEYQLCQPQSKDQVRWQCNRPSAKHGPEKLSEKFQRFTPFTLGKEFKEGHSYYYISKPIHQHEDRCLRLKVTVSGKITHSPQAHDNPQEKRLAADDPEVRVLHSIGHS
modifications: left off: a dimerising Fc or GST
notes: ephrin-A1 dimerized by fusion to the heavy chain of human IgG1
proliferation of cells expressing EphA1 [1]: is inhibited
clonal growth ([2]; EphA2 knockout keratinocytes): resistant to ephrin-A1-induced growth inhibition
clonal growth ([2]; wild type and heterozygous, 1.0 μg/ml, 12 days): suppressed the growth of wild type and heterozygous keratinocytes
wound closing ([3]; vs Fc): slowed down the speed of wound closing
wound closing with HGF/SF ([3]; vs HGF/SF and Fc): the wound closing was also delayed
